Measurements as given in the RNAGym collection of RNA variant scans (doi:10.1093/nar/gkz1192).

B1: CPEB3 Ribozyme (parent)
chain: UAACAGGGGGCCACAGCAGAAGCGUUCACGUCGCAGCCCCUGUCAGAUUCUGGUGAAUCUGCGAAUUCUGCUGUAUAUCUC

Variants of: B1
Assay: self-cleavage, relative activity (ratio to wild type); higher = more cleavage; in vitro, sequencing
How it was run: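 Relative activity was defined as the cleaved/total read fraction for a variant divided by the same fraction for the unmutated ribozyme. CPEB3 self-cleaving ribozyme libraries were made by rounds of error-prone PCR, barcoded, and transcribed in vitro with T7 RNA polymerase for 5 hours at 37°C, and cleavage ran through transcription plus a 15 min DNase I step before EDTA. Illumina sequencing of template-switched reverse transcripts gave the reads, and DNA sequencing mapped the barcodes. Averages come from three batches, using variants with at least 5 reads.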
With UAACAGGGGGCCACAGCAGAAGCGUUCACGUCGCAGCCCCUGUCAGAUUCUGGUGAAUCUGCGUAUUCUGCUGAAUAUCUC the self-cleavage was 0.51. UAACAGGGGGCCACAGCAGAAGCGUUCACGUCGCAGCCCCUGUCAGAUUCUGGUGAAUCUGCGUAUUCUGCUGCAUAUCUC showed a self-cleavage of 0.6. For UAACAGGGGGCCACAGCAGAAGCGUUCACGUCGCAGCCCCUGUCAGAUUCUGGUGAAUCUGCGUAUUCUGCUGUAAAUCUC, the self-cleavage was 0.32. In the case of UAACAGGGGGCCACAGCAGAAGCGUUCACGUCGCAGCCCCUGUCAGAUUCUGGUGAAUCUGCGUAUUCUGCUGUAGAUCUC, the self-cleavage is reported as 0.24. UAACAGGGGGCCACAGCAGAAGCGUUCACGUCGCAGCCCCUGUCAGAUUCUGGUGAAUCUGCGUAUUCUGCUGUACAUCUC gave a self-cleavage of 0.4. UAACAGGGGGCCACAGCAGAAGCGUUCACGUCGCAGCCCCUGUCAGAUUCUGGUGAAUCUGCGAGUACUGCUGUAUAUCUC gave a self-cleavage of 0.3. Work on UAACAGGGGGCCACAGCAGAAGCGUUCACGUCGCAGCCCCUGUCAGAUUCUGGUGAAUCUGCGAGUGCUGCUGUAUAUCUC yielded a self-cleavage of 0.16. In the case of UAACAGGGGGCCACAGCAGAAGCGUUCACGUCGCAGCCCCUGUCAGAUUCUGGUGAAUCUGCGAGUCCUGCUGUAUAUCUC, the self-cleavage is reported as 0.32. UAACAGGGGGCCACAGCAGAAGCGUUCACGUCGCAGCCCCUGUCAGAUUCUGGUGAAUCUGCGUAUUCCGCUGUAUAUCUC gave a self-cleavage of 0.29. With UAACAGGGGGCCACAGCAGAAGCGUUCACGUCGCAGCCCCUGUCAGAUUCUGGUGAAUCUGCGUAUUCGGCUGUAUAUCUC the self-cleavage was 0.4. UAACAGGGGGCCACAGCAGAAGCGUUCACGUCGCAGCCCCUGUCAGAUUCUGGUGAAUCUGCGUAUUCAGCUGUAUAUCUC showed a self-cleavage of 0.32. Work on UAACAGGGGGCCACAGCAGAAGCGUUCACGUCGCAGCCCCUGUCAGAUUCUGGUGAAUCUGCGACUCCUGCUGUAUAUCUC yielded a self-cleavage of 0.23. With UAACAGGGGGCCACAGCAGAAGCGUUCACGUCGCAGCCCCUGUCAGAUUCUGGUGAAUCUGCGUAGUCUGCUGUAUAUCUC the self-cleavage was 0.13. UAACAGGGGGCCACAGCAGAAGCGUUCACGUCGCAGCCCCUGUCAGAUUCUGGUGAAUCUGCGUACUCUGCUGUAUAUCUC showed a self-cleavage of 0.31. Work on UAACAGGGGGCCACAGCAGAAGCGUUCACGUCGCAGCCCCUGUCAGAUUCUGGUGAAUCUGCGUAAUCUGCUGUAUAUCUC yielded a self-cleavage of 0.27. For UAACAGGGGGCCACAGCAGAAGCGUUCACGUCGCAGCCCCUGUCAGAUUCUGGUGAAUCUGCGACUUCUGCUGUGUAUCUC, the self-cleavage was 0.11. For UAACAGGGGGCCACAGCAGAAGCGUUCACGUCGCAGCCCCUGUCAGAUUCUGGUGAAUCUGCGACUUCUGCCGUAUAUCUC, the self-cleavage was 0.35. UAACAGGGGGCCACAGCAGAAGCGUUCACGUCGCAGCCCCUGUCAGAUUCUGGUGAAUCUGCGACUUCUGCAGUAUAUCUC showed a self-cleavage of 0.27. UAACAGGGGGCCACAGCAGAAGCGUUCACGUCGCAGCCCCUGUCAGAUUCUGGUGAAUCUGCGUAUUCUGCUAUAUAUCUC gave a self-cleavage of 0.98. UAACAGGGGGCCACAGCAGAAGCGUUCACGUCGCAGCCCCUGUCAGAUUCUGGUGAAUCUGCGUAUUCUGCUCUAUAUCUC showed a self-cleavage of 0.67. With UAACAGGGGGCCACAGCAGAAGCGUUCACGUCGCAGCCCCUGUCAGAUUCUGGUGAAUCUGCGACUUCUGCUGCAUAUCUC the self-cleavage was 0.3. Work on UAACAGGGGGCCACAGCAGAAGCGUUCACGUCGCAGCCCCUGUCAGAUUCUGGUGAAUCUGCGAGUUCUGCUGUAUGUCUC yielded a self-cleavage of 0.51. Work on UAACAGGGGGCCACAGCAGAAGCGUUCACGUCGCAGCCCCUGUCAGAUUCUGGUGAAUCUGCGAGUUCUGCUGUAUUUCUC yielded a self-cleavage of 0.55. Variant UAACAGGGGGCCACAGCAGAAGCGUUCACGUCGCAGCCCCUGUCAGAUUCUGGUGAAUCUGCGAGUUCUGCUGUAUCUCUC has a self-cleavage of 0.45. Variant UAACAGGGGGCCACAGCAGAAGCGUUCACGUCGCAGCCCCUGUCAGAUUCUGGUGAAUCUGCGAGCUCUGCUGUAUAUCUC has a self-cleavage of 0.27. Variant UAACAGGGGGCCACAGCAGAAGCGUUCACGUCGCAGCCCCUGUCAGAUUCUGGUGAAUCUGCGAGAUCUGCUGUAUAUCUC has a self-cleavage of 0.17. Variant UAACAGGGGGCCACAGCAGAAGCGUUCACGUCGCAGCCCCUGUCAGAUUCUGGUGAAUCUGCGAGUUCUGCUAUAUAUCUC has a self-cleavage of 1.06. Variant UAACAGGGGGCCACAGCAGAAGCGUUCACGUCGCAGCCCCUGUCAGAUUCUGGUGAAUCUGCGAGUUCUGCUUUAUAUCUC has a self-cleavage of 1.19. Work on UAACAGGGGGCCACAGCAGAAGCGUUCACGUCGCAGCCCCUGUCAGAUUCUGGUGAAUCUGCGAGUUCUGCUCUAUAUCUC yielded a self-cleavage of 0.74. UAACAGGGGGCCACAGCAGAAGCGUUCACGUCGCAGCCCCUGUCAGAUUCUGGUGAAUCUGCGAGUUCUGCUGUGUAUCUC showed a self-cleavage of 0.4. UAACAGGGGGCCACAGCAGAAGCGUUCACGUCGCAGCCCCUGUCAGAUUCUGGUGAAUCUGCGAGUUCUGCUGUUUAUCUC gave a self-cleavage of 0.41. UAACAGGGGGCCACAGCAGAAGCGUUCACGUCGCAGCCCCUGUCAGAUUCUGGUGAAUCUGCGAGUUCUGCUGGAUAUCUC showed a self-cleavage of 0.89. UAACAGGGGGCCACAGCAGAAGCGUUCACGUCGCAGCCCCUGUCAGAUUCUGGUGAAUCUGCGAGUUCUGCUGAAUAUCUC showed a self-cleavage of 0.86. UAACAGGGGGCCACAGCAGAAGCGUUCACGUCGCAGCCCCUGUCAGAUUCUGGUGAAUCUGCGAGUUCUGCUGCAUAUCUC gave a self-cleavage of 0.79.
